Measurements: article doi:10.1101/2023.04.27.538407

Tests used:
[1] = molecular target: MYPT1 (endogenous, human platelets) (human (endogenous in platelets)); experiment: proximity ligation
[2] = molecular target: MYPT1-C2 peptide 35, R693 replaced by alanine (human); experiment: peptide or protein array
[3] = molecular target: MYPT1-C2 peptide 35, R694 replaced by alanine (human); experiment: peptide or protein array
[4] = molecular target: MYPT1-C2 peptide 35, S695 replaced by alanine (human); experiment: peptide or protein array

Sequence of MYPT1 (endogenous, human platelets) (human (endogenous in platelets)) (O14974 whole entry): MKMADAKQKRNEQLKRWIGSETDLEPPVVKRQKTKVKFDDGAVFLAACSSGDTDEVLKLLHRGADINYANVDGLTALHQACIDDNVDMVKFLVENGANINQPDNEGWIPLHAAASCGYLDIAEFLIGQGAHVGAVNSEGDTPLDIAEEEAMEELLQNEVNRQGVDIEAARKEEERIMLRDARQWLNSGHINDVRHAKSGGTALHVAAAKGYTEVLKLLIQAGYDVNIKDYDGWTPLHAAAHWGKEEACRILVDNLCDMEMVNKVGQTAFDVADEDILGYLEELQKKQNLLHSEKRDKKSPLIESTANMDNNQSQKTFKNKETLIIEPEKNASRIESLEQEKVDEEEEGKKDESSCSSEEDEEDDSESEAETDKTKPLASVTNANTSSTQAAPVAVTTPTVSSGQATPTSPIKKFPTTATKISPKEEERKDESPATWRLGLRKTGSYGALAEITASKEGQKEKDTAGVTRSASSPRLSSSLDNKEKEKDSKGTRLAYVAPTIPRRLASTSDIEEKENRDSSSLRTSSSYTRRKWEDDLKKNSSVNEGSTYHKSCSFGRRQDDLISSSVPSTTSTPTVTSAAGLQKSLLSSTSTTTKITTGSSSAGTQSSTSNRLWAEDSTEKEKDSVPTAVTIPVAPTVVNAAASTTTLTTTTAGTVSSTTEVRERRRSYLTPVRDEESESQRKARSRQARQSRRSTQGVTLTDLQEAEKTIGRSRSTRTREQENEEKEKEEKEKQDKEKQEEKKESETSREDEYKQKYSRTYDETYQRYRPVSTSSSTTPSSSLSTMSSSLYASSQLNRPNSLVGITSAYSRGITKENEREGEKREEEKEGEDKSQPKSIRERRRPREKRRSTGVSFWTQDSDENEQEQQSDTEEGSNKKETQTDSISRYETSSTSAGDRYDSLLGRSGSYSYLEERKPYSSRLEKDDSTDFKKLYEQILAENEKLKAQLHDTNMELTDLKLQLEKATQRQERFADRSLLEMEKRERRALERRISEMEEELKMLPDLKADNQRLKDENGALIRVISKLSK

Substance | PLA dots per platelet (dots per platelet) [1] | reduction of binding against the non-mutated peptide [2] [%] | reduction of binding against the non-mutated peptide [3] [%] | reduction of binding against the non-mutated peptide [4] [%]
PKA-RI (endogenous, human platelets) (from UniProt P10644 1-381) (natural protein) | 1.48 | – | – | –
PKA-RIIα (endogenous, human platelets) (from UniProt P13861 1-404) (natural protein) | 1.01 | – | – | –
His-tagged PKA-RIIβ (from UniProt P31323 1-418) (natural protein) | – | 50 | 50 | 50
His-tagged PKA-RIβ (from UniProt P31321 1-381) (natural protein) | – | 50 | 50 | 50
PKA-RIIβ (endogenous, human platelets) (from UniProt P31323 1-418) (natural protein) | 0.97 | – | – | –
